Measurements published in the supplement of paper PMC9112550, “Optimization of the antimicrobial peptide Bac7 by deep mutational scanning” (BMC Biology, 2022).

Test system: Escherichia coli TOP10
Assay: shrunken log2 fold change of peptide-encoding DNA abundance (4.5 h post-induction vs induction); higher = less antimicrobial activity (less host growth inhibition)
Conditions: time post-induction: 4.5 h; library: site-saturation at positions 5, 18, 19, 20
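Note: peptides expressed intracellularly from a pBAD plasmid library in pooled LB shake-flask culture, induced with 0.3% L-arabinose, DNA abundance read by NGS, three biological replicates, DESeq2 with apeglm shrinkage.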

Row | Sequence | shrunken log2 fold change
1 | RRIRKRPPRLPRPRPRPPNSPRP | 0.156
2 | RRIRGRPPRLPRPRPRPVTLPRP | 0.149
3 | RRIRVRPPRLPRPRPRPYHLPRP | -0.184
4 | RRIRFRPPRLPRPRPRPADKPRP | 0.0852
5 | RRIRDRPPRLPRPRPRPKYYPRP | -0.193
6 | RRIRPRPPRLPRPRPRPNDVPRP | -0.206
7 | RRIRGRPPRLPRPRPRPECLPRP | 0.685
8 | RRIRDRPPRLPRPRPRPHSRPRP | -0.328
9 | RRIRERPPRLPRPRPRPNPRPRP | 0.134
10 | RRIRPRPPRLPRPRPRPEKSPRP | 0.264
11 | RRIRMRPPRLPRPRPRPGHIPRP | 0.0817
12 | RRIRARPPRLPRPRPRPHMKPRP | -0.188
13 | RRIRYRPPRLPRPRPRPHGEPRP | 0.0796
14 | RRIRMRPPRLPRPRPRPWDRPRP | 0.158
15 | RRIRARPPRLPRPRPRPCTYPRP | -0.173
16 | RRIRGRPPRLPRPRPRPSVYPRP | 0.286
17 | RRIRSRPPRLPRPRPRPMIHPRP | -0.0892
18 | RRIRHRPPRLPRPRPRPTTNPRP | -0.348
19 | RRIRVRPPRLPRPRPRPRRSPRP | 0.349
20 | RRIRLRPPRLPRPRPRPGDGPRP | 0.869
21 | RRIRKRPPRLPRPRPRPHALPRP | 0.154
22 | RRIRHRPPRLPRPRPRPGQPPRP | 0.0384
23 | RRIRARPPRLPRPRPRPKVSPRP | 0.669
24 | RRIRVRPPRLPRPRPRPIWAPRP | 0.256
25 | RRIRARPPRLPRPRPRPVIGPRP | 0.535

Row | Sequence | shrunken log2 fold change
26 | RRIRNRPPRLPRPRPRPRQGPRP | -0.0662
27 | RRIRTRPPRLPRPRPRPVNQPRP | 0.0163
28 | RRIRNRPPRLPRPRPRPRTAPRP | -0.0352
29 | RRIRTRPPRLPRPRPRPPCQPRP | -0.215
30 | RRIRERPPRLPRPRPRPSQYPRP | -0.113
31 | RRIRARPPRLPRPRPRPWLGPRP | 0.417
32 | RRIRSRPPRLPRPRPRPHKMPRP | -0.156
33 | RRIRGRPPRLPRPRPRPIHIPRP | 0.304
34 | RRIRIRPPRLPRPRPRPCSWPRP | -0.31
35 | RRIRIRPPRLPRPRPRPHRQPRP | -0.152
36 | RRIRLRPPRLPRPRPRPKKQPRP | -0.046
37 | RRIRHRPPRLPRPRPRPARCPRP | 0.252
38 | RRIRGRPPRLPRPRPRPFKWPRP | -0.0584
39 | RRIRQRPPRLPRPRPRPRYGPRP | -0.407
40 | RRIRCRPPRLPRPRPRPPIQPRP | 0.369
41 | RRIRHRPPRLPRPRPRPVIAPRP | -0.134
42 | RRIRLRPPRLPRPRPRPPPKPRP | 1.8
43 | RRIRMRPPRLPRPRPRPQERPRP | -0.00224
44 | RRIRYRPPRLPRPRPRPCCIPRP | -0.129
45 | RRIRERPPRLPRPRPRPLKHPRP | -0.425
46 | RRIRCRPPRLPRPRPRPLICPRP | -0.499
47 | RRIRLRPPRLPRPRPRPTVQPRP | -0.191
48 | RRIRWRPPRLPRPRPRPCDMPRP | -0.173
49 | RRIRERPPRLPRPRPRPQDEPRP | -0.941
50 | RRIRSRPPRLPRPRPRPCTVPRP | -0.253

Row | Sequence | shrunken log2 fold change
51 | RRIRMRPPRLPRPRPRPRMEPRP | 0.0362
52 | RRIRVRPPRLPRPRPRPKYMPRP | -0.433
53 | RRIRNRPPRLPRPRPRPKDWPRP | 0.0256
54 | RRIRLRPPRLPRPRPRPDHNPRP | -0.00288
55 | RRIRRRPPRLPRPRPRPKQYPRP | -0.215
56 | RRIRLRPPRLPRPRPRPKGSPRP | -0.0276
57 | RRIRTRPPRLPRPRPRPAFWPRP | 0.26
58 | RRIRPRPPRLPRPRPRPINLPRP | -0.994
59 | RRIRQRPPRLPRPRPRPDTNPRP | -0.413
60 | RRIRYRPPRLPRPRPRPWGLPRP | -0.0143
61 | RRIRQRPPRLPRPRPRPNLIPRP | -0.556
62 | RRIRQRPPRLPRPRPRPYPQPRP | -0.00227
63 | RRIRDRPPRLPRPRPRPSHNPRP | -0.314
64 | RRIRMRPPRLPRPRPRPQPHPRP | 0.46
65 | RRIRNRPPRLPRPRPRPCEFPRP | -0.398
66 | RRIRTRPPRLPRPRPRPRGFPRP | 0.732
67 | RRIRARPPRLPRPRPRPEKHPRP | 0.0578
68 | RRIRHRPPRLPRPRPRPPLAPRP | 0.378
69 | RRIRERPPRLPRPRPRPELDPRP | 0.0389
70 | RRIRNRPPRLPRPRPRPTHRPRP | 0.597
71 | RRIRQRPPRLPRPRPRPHVSPRP | -0.108
72 | RRIRNRPPRLPRPRPRPMPQPRP | -0.0321
73 | RRIRSRPPRLPRPRPRPTNTPRP | 0.0794
74 | RRIRVRPPRLPRPRPRPFIRPRP | -0.148
75 | RRIRSRPPRLPRPRPRPDQVPRP | -0.0236

Row | Sequence | shrunken log2 fold change
76 | RRIRSRPPRLPRPRPRPLFTPRP | -0.0175
77 | RRIRQRPPRLPRPRPRPSTMPRP | 0.0933
78 | RRIRPRPPRLPRPRPRPKFIPRP | -0.308
79 | RRIRMRPPRLPRPRPRPHARPRP | 0.299
80 | RRIRVRPPRLPRPRPRPMINPRP | -0.257
81 | RRIRKRPPRLPRPRPRPRHRPRP | 0.264
82 | RRIRKRPPRLPRPRPRPSEWPRP | 0.212
83 | RRIRFRPPRLPRPRPRPTNEPRP | -0.264
84 | RRIRLRPPRLPRPRPRPIDGPRP | -0.0968
85 | RRIRGRPPRLPRPRPRPVWKPRP | 0.113
86 | RRIRHRPPRLPRPRPRPAEKPRP | -0.0153
87 | RRIRIRPPRLPRPRPRPYRFPRP | -0.636
88 | RRIRLRPPRLPRPRPRPPVVPRP | 0.218
89 | RRIRFRPPRLPRPRPRPEDAPRP | 0.00922
90 | RRIRLRPPRLPRPRPRPHACPRP | 0.0658
91 | RRIRERPPRLPRPRPRPCGQPRP | -0.0982
92 | RRIRQRPPRLPRPRPRPSQRPRP | -0.523
93 | RRIRYRPPRLPRPRPRPGHSPRP | -0.13
94 | RRIRFRPPRLPRPRPRPVFHPRP | -0.598
95 | RRIRQRPPRLPRPRPRPFTEPRP | -0.223
96 | RRIRWRPPRLPRPRPRPPGIPRP | 0.41
97 | RRIRQRPPRLPRPRPRPTGYPRP | 0.0832
98 | RRIRQRPPRLPRPRPRPYWLPRP | -0.307
99 | RRIRTRPPRLPRPRPRPAWVPRP | 0.285
100 | RRIRRRPPRLPRPRPRPQNTPRP | -0.218

Row | Sequence | shrunken log2 fold change
101 | RRIRDRPPRLPRPRPRPHVYPRP | -0.0179
102 | RRIRRRPPRLPRPRPRPLVDPRP | 0.106
103 | RRIRGRPPRLPRPRPRPSLAPRP | 1.09
104 | RRIRRRPPRLPRPRPRPPLLPRP | 0.675
105 | RRIRWRPPRLPRPRPRPEFTPRP | 0.362
106 | RRIRDRPPRLPRPRPRPVYRPRP | -0.0426
107 | RRIRDRPPRLPRPRPRPGDMPRP | 0.164
108 | RRIRNRPPRLPRPRPRPNSPPRP | 0.0941
109 | RRIRLRPPRLPRPRPRPVECPRP | 0.0709
110 | RRIRWRPPRLPRPRPRPDQDPRP | -0.0971
111 | RRIRTRPPRLPRPRPRPTLEPRP | 0.0319
112 | RRIRKRPPRLPRPRPRPFGKPRP | 0.144
113 | RRIRSRPPRLPRPRPRPLASPRP | 0.0667
114 | RRIRKRPPRLPRPRPRPFMEPRP | -0.00271
115 | RRIRIRPPRLPRPRPRPKPHPRP | -0.0472
116 | RRIRVRPPRLPRPRPRPTLKPRP | 0.151
117 | RRIRARPPRLPRPRPRPNCLPRP | -0.111
118 | RRIRFRPPRLPRPRPRPLVWPRP | 0.0758
119 | RRIRGRPPRLPRPRPRPMFIPRP | 0.0775
120 | RRIRSRPPRLPRPRPRPTIYPRP | -0.405
121 | RRIRNRPPRLPRPRPRPMEKPRP | 0.0048
122 | RRIRKRPPRLPRPRPRPHGGPRP | -0.0161
123 | RRIRCRPPRLPRPRPRPAQWPRP | 0.696
124 | RRIRFRPPRLPRPRPRPKQAPRP | -0.0316
125 | RRIRSRPPRLPRPRPRPYWAPRP | -0.177
